Reference: the nanobody polyreactivity screen of Harvey et al. (2022)

Experiment: yeast display, Sf9 membrane polyspecificity reagent, FACS + sequencing; frameworks hold sequencing errors
Summary of the method: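 Genes from sorted yeast were amplified by colony PCR, read by MiSeq 2 × 250 sequencing and filtered on CDR length. These cells carried a synthetic nanobody library in Saccharomyces cerevisiae BJ5465 and were sorted by FACS into low and high (top ~1%) gates on anti-HA and streptavidin fluorescence. Polyreactivity is labelled according to the gate of origin.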

Sequence | polyreactivity (PSR sort gate)
QVQLVESGGGLVQAGGSLRLSCAASGYIFTRNAMGWYRQAPGKDRELVAAISQGGGSTYYADSVKGRFTISRDNAKNTVYFQMNSLKPEDTAVYYCAAYFYTFVGYDYWGQGTQVTVSS | low polyreactivity
QVQLVESGGGLVQAGGSLRLSCAASGYIFVKNAMGWYRQAPGKERELVAAISTRGGRTYYADSVKGRFTISRDNAKNTVYLQMNSLKPEDTAVYYCAAVHQTSYYDANSYGYWGQGTQVTVSS | high polyreactivity
QVQLVESGGGLVQAGGSLRLSCAASGYIFVRNAMGWYRQAPGKERELVAAISGSGGSTYYADSVKGRFTISRDNAKNSVYLQMNSLKPEDTAVYYCAARRYGYRYDQPYSNDYWGLGTQVTVSS | low polyreactivity
QVQLVESGGGLVQAGGSLRLSCAASGYIFYAYAMGWYRQAPGKERELVAAISSGGGRTYYADSVKGRFTISRDNAKNTVDLQRNSLKPEDTAVYYCAARRRDRGEYYYWGQGTQVTVSS | high polyreactivity
QVQLVESGGGLVQAGGSLRLSCAASGYIFYDNAMGWYRQAPGKERELVAAISASGGDTYYADSVKGRFTISRDNAKNTVYLQMNSLKPEDTAVYYCAADLITYAMEYWGQGTEVTVSS | low polyreactivity
QVQLVESGGGLVQAGGSLRLSCAASGYIFYNYAMGWYRQAPGKERELVAAISRRGGSTYYADSVKGRFTISRDNAKNTVYLQMNSLKPEDTAVYYCAKTPYAHPNYYTDYYWGQGTQVTVSS | high polyreactivity
QVQLVESGGGLVQAGGSLRLSCAASGYIIDNNSMAWYRQAPGKERELVASNTNSAGSTSYADSVKGRFTISRDNAKNTVYLQMNSLKPEDTAVYYCAAKRYHYFFPYSRRGAYGYWGQGTQVTVSS | high polyreactivity
QVQLVESGGGLVQAGGSLRLSCAASGYILPKNTMGWYRQAPGKERELVAAISWSGGSTFYADSVKGRFTISRDNAKNTVYLQMNSLKPEDTAVYYCAADRYWSWYYRYDYWGQGTQVTVSS | low polyreactivity
QVQLVESGGGLVQAGGSLRLSCAASGYILPKNTMGWYRQAPGKERESVAVITYSGGSTYYADSVKGRFTISRDNAKNTVYLQMNSLKPEDTAVYYCAADKWYYVRYPTDAYSKFDYWGQGTQVTVSS | low polyreactivity
QVQLVESGGGLVQAGGSLRLSCAASGYILRSNAMGWYRQAPGKEREFVAAITYSGGSTYYADSEKGRFTISLDNAMNSVYLQMNSLKPEDTAVYYCAKTTRYQRGYGYWGQGTQVTVSS | low polyreactivity
QVQLVESGGGLVQAGGSLRLSCAASGYILWNAMGWYRQAPGKERELVAAIRFRGGSTSYADSVKGRFTISRDNAKNTVYLQMNSLKPEDTAVYYCNARWWVIRPYQRHDYWGQGTQVTVSS | low polyreactivity
QVQLVESGGGLVQAGGSLRLSCAASGYISSYNPMGWSRQAPGKERELVASITRGGSTYYADSVKGRFTISRDNAKNTVYLQMNSLKPEDTAVYYCAADTLRQYDYEYWGQGTQVTVSS | high polyreactivity
QVQLVESGGGLVQAGGSLRLSCAASGYIWCYAMGWDRQAPGKEWELVAAISWGGGSTYYADSVKGRFTISRDNAKNTVYLQMNSLKREDTAVYYCAAVDAVGPTSHAMYYWGLGTQVTVSS | low polyreactivity
QVQLVESGGGLVQAGGSLRLSCAASGYNFFSYAKGWYRQPPGKERELVAAISRGGRTYYADSVKGRFTISRDNAKNTVYLQMKILKPEDTAVYYCNAVSTPGKYGYWGQGTQVTVSS | high polyreactivity
QVQLVESGGGLVQAGGSLRLSCAASGYSFYYNAMGWYRQAPGKERELVAAISYTGGSTYYADSVKGRFTISRDNAKNTVYLQMNSLKPEDTAVYYCAAEYYTYVSDNYQHYGYWGQGTQVTVSS | low polyreactivity
QVQLVESGGGLVQAGGSLRLSCAASGYTCDANAMGWYRQATGKERELVASISSISDSTDYADAVKGRITISRDNATNTVYLQMKILKPEDTAVYYCARSDVKPGRQERDYWGQGTQVTVSS | low polyreactivity
QVQLVESGGGLVQAGGSLRLSCAASGYTFAGYAMGWYRQAPGKERELVAAISRNGGTTYYADSVKGRFTISRDNAKNTVYLQMNSLKPEDTADYYCNKRGWYSVYRRDYWGQGTQVTVSS | high polyreactivity
QVQLVESGGGLVQAGGSLRLSCAASGYTFANNAMGWYRQAPGKERELVAVITWSGDSTYYADSVKGRFTISRDNAKNTVYLQMNSQKAEDTAVYYCAREFSDGLSGKFDYWGQGTQLTVSS | low polyreactivity
QVQLVESGGGLVQAGGSLRLSCAASGYTFAPNTMGWYRQAPGKERELVATITVSGGITYADSVKGRFTISRDNAKNTVYLQMNSLKPEDTAVYYCAARTPGWYLPRDYWGQGTQVTVSS | low polyreactivity
QVQLVESGGGLVQAGGSLRLSCAASGYTFATYTMGWYRQAPGKERELVAAITGGGGSTSYADSVKGRFTISRDNAKNTVYLQMNSLKLEDTAVYYCNAGISVDYSLEKYDYWGQGTQVTVSS | low polyreactivity
QVQLVESGGGLVQAGGSLRLSCAASGYTFAWYAMGWYRQAPGKERELVAAITVSGGSTYYADSVKGRFTISRDNAKNTVYVQMNSLKPEDTAVYYCAADYAPLDLYQDSTVYSSGDYWGQGTQVTVSS | low polyreactivity
QVQLVESGGGLVQAGGSLRLSCAASGYTFAWYTMGWYRQAPGKERELVAAISASGVRTYYADSVKGRFTISRDNAKNTVYLQMNSLKPQDTAVYYCNRVYSTSRITQYEFDYWGQGTQVTVSS | low polyreactivity

Sequence | polyreactivity (PSR sort gate)
QVQLVESGGGLVQAGGSLRLSCAASGYTFDAYAMGWYRQAPGKERELVAAITTNGGSTYYADSVKGRFTISRDNAKNTVFLQMNSLIPEDTAVFYCKAEYWYEGRYPYDYWGQGTQVTVSS | low polyreactivity
QVQLVESGGGLVQAGGSLRLSCAASGYTFDYYAMGRYRQAPGNERELVAAITNSGGSTYYADSVKGRFTISRDNAKKTVYLQMNSLKPEDPAVYYCAALYYVKPGQRYDYWGQGTQVTVSS | high polyreactivity
QVQLVESGGGLVQAGGSLRLSCAASGYTFFEYTMGWYRQAPGKVREFVAAISWSGGITYYADSVKGRFTISRDNAKNTVYLQMNSLKPEDTAVYYCNADIYSPTPIDYNYWGQGTQVTVSS | low polyreactivity
QVQLVESGGGLVQAGGSLRLSCAASGYTFGGYAMGWYRQAPGKERELVAAISGSGVRTYYADSVKGRFTISRDNAKNTVYLQMNSLKPEDTAVYYCAKRVRYPGDRYYYWGQGTQVTVSS | high polyreactivity
QVQLVESGGGLVQAGGSLRLSCAASGYTFGHYAMGWYRQAPGKERELVAVITSGGSTNYADSVKGRFTISRDNAKNTVYLQMNSLKPEDTAVYYCAADLYFYYVWIRDYWGQGTQVTVSS | low polyreactivity
QVQLVESGGGLVQAGGSLRLSCAASGYTFGIYAMGWYRQAPGKAREFVAAIRWSDTSTSYADSVKWRFTISRDNAKNTVYLQMNSLKPEDTAVYNCAADTFYLYDYWGQGTQVTVSS | low polyreactivity
QVQLVESGGGLVQAGGSLRLSCAASGYTFGLYTMGWYRQAPGKEREFVATIDWSDGGTHYADSVKGRFTISRDNAKNTVYLQMNSLKPEDTAVYYCNADWYAYPYGYWGQGTQVTVSS | low polyreactivity
QVQLVESGGGLVQAGGSLRLSCAASGYTFGTYDKGWYRQAPGKERELVAAISIGGSTNYADSVKGRFTISRDNAKNTVYLQMNSLKPEDTAVYYCAAEVNVGTLLLSVIVEDGDYWGQGTQVTVSS | low polyreactivity
QVQLVESGGGLVQAGGSLRLSCAASGYTFGTYTMGWYRMARWKERELVAGIDSGGTTNYADSVKGRFTISRDNATNTVYLQMHSLKPEHTAVYYSTAYHLLIVDYYLGLYYYRGNYYWGQGTQVTVSS | low polyreactivity
QVQLVESGGGLVQAGGSLRLSCAASGYTFGTYTMGWYRQAPGKERELVAGIDSGGTTNYADSVKGRFTISRDNAKNTVYLKMNRVKPEDTAVYYCTAYHLLIVDYYLGMYYYGGNYYWGQGNQVTVSS | low polyreactivity
QVQLVESGGGLVQAGGSLRLSCAASGYTFKSYVMGWYRQAPGKERELVAAITSIGGSTYYADSVKGRFTISRDNAKNTVYLQMNRLKPEDTAVYYCAARSFRFYPRMHDWGQGTQVTVSS | high polyreactivity
QVQLVESGGGLVQAGGSLRLSCAASGYTFKTYAMGWYRQAPVKERELVAAISGSGGSTYYADSVKGRFTISRDNAKNTVYLQMNSLKPEDTAVYYCNASPTTTPNFWRYDYWGQGTQVTVSS | high polyreactivity
QVQLVESGGGLVQAGGSLRLSCAASGYTFKTYPMGSYRQAPGKERELVAAISGSGGSTYYADSVKVRFTISRDNAKNTVYLQMNSLNPEDTAVYYCNASPTTTPNFWRYDYWGQGTQVTVSS | high polyreactivity
QVQLVESGGGLVQAGGSLRLSCAASGYTFLGYAMGWSRQAPGKERELVAAIRRSGGRTYYADSVKGRFTISRDNAKNTVYLQMNSLKPEDTAVYYCAKGYVGEYDYWGQGTQVTVSS | high polyreactivity
QVQLVESGGGLVQAGGSLRLSCAASGYTFLHYAMGWYRQAPGKERELVAAISGSGGRTYYADSVKGRFTISRDNAKNTVYLQMNSLKPEDTAVYYCAAPYSSRNYYYWGQGTQVTVSS | high polyreactivity
QVQLVESGGGLVQAGGSLRLSCAASGYTFNGYAMGWYRQAPGKERELVAAISWSGGSTYYADSVKGRFTISRDNAKNTFYLQMNSLKPEDTAVYYCARRGPSGVYNDGGYGLDDDYWGQGTQVTVSS | low polyreactivity
QVQLVESGGGLVQAGGSLRLSCAASGYTFPQYAMGWYRQAPGKERELVAAITRRGGSTYYADSVKGRFTISRDNAKNTVYLQMNSLKPEDSAVYNCAADSYPYSHGGDYWGQGTQVTVSS | high polyreactivity
QVQLVESGGGLVQAGGSLRLSCAASGYTFPQYAMRWYRQAPGKERELVAAITRRGGSTYYADSVKGRFTISRDNAKNTVYLQMNSLNPEDTAVYYGSARYYWGQGTQVTVSS | high polyreactivity
QVQLVESGGGLVQAGGSLRLSCAASGYTFPSNAMGWYRQAPGKERDWVAAISSGGRTNYADSVKGRFTISRDNAKNTVYLQMNSLKPEDTAVYYCNADGGPGYPRAYDYWGQGTQVTVSS | low polyreactivity
QVQLVESGGGLVQAGGSLRLSCAASGYTFQRYAMGRYRQAPGKERELVATISKRGGSTYYADSVKGRFTISRDNAKNTVYLQMNSLKPDDTAVYYCATATPEYRGYWPWQYAGGDYWGQGTQVTVSS | high polyreactivity
QVQLVESGGGLVQAGGSLRLSCAASGYTFRFNAMGWYRQAPGKERELVARISKSGGSTYYADSVKGRFTISRDNAKNTVYLQMNSLKPEDTAVYYCAAKDYVWGQGTQVTVSS | low polyreactivity
